Target: the molecule itself
Experiment: SEC

B1: EcPAPR4cys (enzyme, Escherichia coli)
chain: MSKLDLNALNELPKVDRILALAETNAELEKLDAEGRVAWALDNLPGEYVLSSSFGIQAAVSLHLVNQIRPDIPVILTDTGYLFPETYRFIDELTDKLKLNLKVYRATESAAWQEARYGKLWEQGVEGIEKCCDINKVEPMNRALKELNAQTWFAGLRREQSGSRANLPVLAIQRGVFKVLPIIDWDNRTIYQYLQKHGLKYHPLWDEGYLSVGCTHCTRKWEPGMAEEETRFFGLKRECGLHEG
  stoichiometry N: 2

From paper PMC3288176 (ACS Chemical Biology, 2011)
